Laboratory results: US20220298231A1 (AC IMMUNE, published 2022)
Like-named read-outs stand apart in the source and are kept apart here. Where no end group is shown, it is not given here. The star is where a group is joined. Biotin = O=C1N[C@H]2[C@H](CS[C@H]2CCCCC(=O)*)N1; Ahx = NCCCCCC(=O)O

Tests used:
[1] = target: T1, 82-96aa; test: 15-mer peptide ELISA
T1 construct: also called alpha-synuclein peptide 82-96
T1 peptide: {Biotin-Ahx}-VEGAGSIAAATGFVK

[2] = target: T2, 91-105aa; test: 15-mer peptide ELISA
T2 construct: also called alpha-synuclein peptide 91-105
T2 peptide: {Biotin-Ahx}-ATGFVKKDQLGKNEE

[3] = target: T3, 109-123aa; test: indirect ELISA on biotinylated 15-mer peptide (streptavidin plate), supernatant 1/100
T3 peptide: {Biotin-Ahx}-QEGILEDMPVDPDNE

[4] = target: T4, 100-114aa; test: as above
T4 peptide: {Biotin-Ahx}-LGKNEEGAPQEGILE

[5] = target: T4, 100-114aa; test: 15-mer peptide ELISA;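 note: indirect ELISA of hybridoma supernatant antibodies (1/100, 1 h) binding immobilized 15-mer peptides spanning human alpha-synuclein 1-140 on streptavidin plates, read as optical density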
[6] = target: T3, 109-123aa; test: 15-mer peptide ELISA;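 note: indirect ELISA of hybridoma supernatant antibodies (1/100, 1 h) binding immobilized 15-mer peptides spanning human alpha-synuclein 1-140 on streptavidin plates, read as optical density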
[7] = target: T5, 37-51aa; test: 15-mer peptide ELISA
T5 construct: also called alpha-synuclein peptide 37-51
T5 peptide: {Biotin-Ahx}-VLYVGSKTKEGVVHG

[8] = target: T1, 82-96aa; test: 15-mer peptide ELISA
[9] = target: T6, 1-15aa; test: indirect ELISA on biotinylated 15-mer peptide (streptavidin plate), supernatant 1/100
T6 construct: also called alpha-synuclein peptide 1-15
T6 peptide: {Biotin-Ahx}-MDVFMKGLSKAKEGV

[10] = target: T2, 91-105aa; test: 15-mer peptide ELISA
[11] = target: T6, 1-15aa; test: 15-mer peptide ELISA
[12] = target: T5, 37-51aa; test: indirect ELISA on biotinylated 15-mer peptide (streptavidin plate), supernatant 1/100
[13] = target: T1, 82-96aa; test: as above

B1: ACI-8033-5A12-Ab1 (antibody, V domains shown)
VH: QVHLKQSGADLVRPGASVKLSCKASGYTFTDYYINWVKQRPGQGLEWIARIYPGSGNTYYNEKFKGRATLSAEKSSTTAYMQLSSLTSEDSAVYFCVVGYYGAWGQGTTLTVSS
VL: DVVMTQTPLSLPVSLGDQASISCRSSQSLVHSNGKTHLHWYLQKPGQSPKLLIYKVSNRFSGVPDRFSGSGSGTDFTLKISRVEAEDLGVYFCSQSTHVPWTFGGGTKLEIK
notes: mouse hybridoma mAb; also called 917.5A12A11C9
B1: no binding (tested: supernatant 1/100) [1]; no binding (tested: supernatant 1/100) [2]; binds [3]. B1: binds [4].

B2: ACI-8033-1A12-Ab1 (antibody, V domains shown)
VH: QVHLKQSGADLVRPGASVKLSCKASGYSFTDFYINWVKQTPGQGLEWIARIYPGNNNTFYNEKFKGKATLSAEKSSTTAYMQLSSLTSEDSAVYFCVVGYYGAWGQGTTLTVSS
VL: DVVMTQTPLSLPVSLGDQASISCRSSQSLVHSNGNTHLHWYLQKPGQSPKLLIYKVSNRFSGVPDRFSGSGSGTDFTLKISRVEAEDLGFYFCSQSTHVPWTFGGGTKLEIK
notes: mouse hybridoma mAb; also called 917.1A12C1B4
B2: no binding (tested: supernatant 1/100) [1]; no binding (tested: supernatant 1/100) [2]; no binding (tested: supernatant 1/100) [5]. B2: binds [3].

B3: ACI-8033-18C11-Ab1 (antibody, V domains shown)
VH: QVQLQQPGAELVKPGASVKMSCKAAGYTFSSYWITWVRQRPGQGLDWIGDIYPGGGVTNYNEKFKTKATLTVDTSSSTAYMQLSSLTSEDSAVYYCATAQTTFAYWGQGTLVTVSA
VL: DVLMTQTPLSLPVSLGDQASISCRSSQNIVHNNGNTYLEWYLQKPGQSPKLLIYKVSNRFSGVPDRFSGSGSGTDFTLKISRVEAEDLGVYYCFQGSHVPRTFGGGTKLEIK
notes: mouse hybridoma mAb; also called 917.18C11A11F10
B3: no binding (tested: supernatant 1/100) [6]; no binding (tested: supernatant 1/100) [1]; no binding (tested: supernatant 1/100) [2]. B3: binds [4].

B4: ACI-8033-18D12-Ab1 (antibody, V domains shown)
VH: QVQLQQPGAELVKPGASVKMSCKASGYTFTSYWITWVRQRPGQGLDWIGDIYPGGGVTNYNEKFKTKATLTVDTSSSTAYMHLSSLTSEDSAVYFCATAQTTFAHWGQGTLVTVSA
VL: DVLMTQTPLSLPVSLGDQASISCRSSQNIAHNNGNTYLEWYLQKPGQSPKLLIYKVSNRFSGVPDRFSGSGSGTDFTLKISRVEAEDLGVYYCFQGSHVPRTFGGGTKLEIK
notes: mouse hybridoma mAb; also called 917.18D12F10D6
B4: no binding (tested: supernatant 1/100) [6]; no binding (tested: supernatant 1/100) [1]; no binding (tested: supernatant 1/100) [2]. B4: binds [4].

B5: ACI-8033-1G10-Ab1 (antibody, V domains shown)
VH: DVQLQESGPGLVKPSQTVFLTCTVTGISITTGNYRWSWIRQFPGNKLEWIGYIYYSGTITYNPSLTSRTTITRDTPKNQFFLEMNSLTAEDTATYYCARIYYGNAMDYWGQGTSVTVSS
VL: DVVMTQTPLSLPVSLGDQASISCRSSQSLVHSNGNTYLHWYLQKPGQSPKLLIYKVSNRFSGVPDRFSGSGSGTDFTLKISRVEAEDLGVYFCSQSTHVPHTFGGGTKLEIK
notes: mouse hybridoma mAb; also called 917.1G10A10F6
B5: no binding (tested: supernatant 1/100) [1]; no binding (tested: supernatant 1/100) [2]; binds [3].

B6: ACI-8033-19A2-Ab1 (antibody, V domains shown)
VH: EVQLVESGGGLVQPKGSLKLSCAASGFSFNTYAMNWVRQAPGKGLEWVARIRSKSNNYATYYVDSVKDRFTISRDDSESMLYLQMNNLKTEDTALYYCVSESAYWGQGTLVTVSA
VL: DVVMTQTPLSLPVSLGDQASISCRSSQSLVHSNGNTYLYWYLQKPGQSPKLLIYKVSNRLSGVPDRFSGSGSGTDFTLKISRVEAEDLGVYFCSQSTHVPFTFGSGTKLEIK
notes: mouse hybridoma mAb; also called 917.19A2E9E5
B6: no binding (tested: supernatant 1/100) [1]; no binding (tested: supernatant 1/100) [2]; no binding (tested: supernatant 1/100) [5]. B6: binds [3].

B7: ACI-7088-4303A1-Ab1 (antibody, V domains shown)
VH: EVQLQQSGAELVRPGASVKLSCTASGFNIKDDYMHWVKQRPEQGLEWIGWIDPENGDSEYASKFQGKATMTADTSSNTAYLQLSSLTSEDTAVYYCKTWGTAQALFPYWGQGTLVTVSA
VL: DIVMTQSQKFMSTSVGDRVSITCKASQNVGTSVGWYQQKAGQSPKLLIHSASNRYTGVPDRFTGSGSGTDFTLTINNMQSEDLADYFCQQYRSYPLTFGAGTKLELK
notes: mouse hybridoma mAb; also called 4303A1E7
B7: no binding (tested: supernatant 1/100) [7]; no binding (tested: supernatant 1/100) [8]; binds [9].

B8: ACI-7088-4317A4-Ab1 (antibody, V domains shown)
VH: EVQLQQSGAELVRPGASVKLSCTASGFNIKDDYMHWVKQRPEQGLEWIGWIDPENGDTEYASKFQGKATMTADTSSNTAYLQLSSLTSEDTAVYYCKTWGTTQALFPYWGQGTLVTVSA
VL: DIVMTQSQKFMYTSVGDRVSITCKASQNVGNAVGWYQQKAGQSPKLLIHSASNRYTGVPDRFTGTGSGTDFTLTINNMQSEDLADYFCQQYRSYPLTFGAGTKLELK
notes: mouse hybridoma mAb; also called 4317A4D2
B8: no binding (tested: supernatant 1/100) [7]; no binding (tested: supernatant 1/100) [8]; no binding (tested: supernatant 1/100) [10]. B8: binds [9].

B9: ACI-7088-4303A3-Ab1 (antibody, V domains shown)
VH: QVQLQQSGAELVRPGASVTLSCKASGYTFTDYEMHWVKQTPVHGLEWIGVIDPETGGAVQNQKFKGKAILTADNSSSTAYMDLRSLTSEDSAVYNCAMGAALRLAYWGQGTLVTVSS
VL: DVLMTQTPLSLPVSLGDQASISCRSSQSIVHSNGNSYLEWYLQKPGQSPKLLIYKVSNRFSGVPDRFSGSGSGTDFTLKINRVEAEDLGVYYCFQGSHVPFTFGSGTKLEIK
notes: mouse hybridoma mAb; also called 4303A3E4
B9: no binding (tested: supernatant 1/100) [11]; no binding (tested: supernatant 1/100) [8]; no binding (tested: supernatant 1/100) [10]. B9: binds [12].

B10: ACI-7089-4418C5-Ab1 (antibody, V domains shown)
VH: DGQLQESGPGLVKPSQSLSLTCSVTGYSITSGYYWNWIRQFPGNKLEWMGYINYDGSNNYNPSLKNRISITRDTSKNQFFLKFNFVTTEDTATYYCVRGDVYWGQGTTLTVSS
VL: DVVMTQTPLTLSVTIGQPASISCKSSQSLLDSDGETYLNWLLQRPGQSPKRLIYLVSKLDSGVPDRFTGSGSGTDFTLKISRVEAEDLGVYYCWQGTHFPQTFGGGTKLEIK
notes: mouse hybridoma mAb; also called 4418C5G1
B10: binds [13].

B11: ACI-7089-4409F1-Ab1 (antibody, V domains shown)
VH: DVQLQESGPGLVKPSQSLSLTCSVTGYSITRGYYWNWIRQFPGNKLEWMGYISYDGSNNYNPSLRNRISITRDTSKNQFFLKLKSVTTEDTATYFCARGDSNWGQGTTLTVSA
VL: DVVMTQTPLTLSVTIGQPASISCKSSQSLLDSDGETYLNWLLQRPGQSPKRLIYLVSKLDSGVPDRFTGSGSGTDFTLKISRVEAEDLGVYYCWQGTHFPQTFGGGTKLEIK
notes: mouse hybridoma mAb; also called 4409F1A8
B11: no binding (tested: supernatant 1/100) [7]; no binding (tested: supernatant 1/100) [11]; binds [13].

B12: ACI-7089-4418F6-Ab1 (antibody, V domains shown)
VH: QVQLQQSGAELARPGASVKVSCKASGYTFTSSGISWLKHRTGQGLEWIGDIYPRSGNTYYNEKFKDKATLTADKSSSTAYMELRSLTSEDSAVYFCSSGNYWGQGTTLTVSS
VL: DIVITQDDLSNPVTSGESVSISCRSSKSLLYKDGKTYLNWFLQRPGQSPQLLIYLMSTRASGVSDRFSGSGSGTDFTLEISRVKAEDVGVYYCQQLLEYPLTFGAGTKLELK
notes: mouse hybridoma mAb; also called 4418F6G7
B12: no binding (tested: supernatant 1/100) [7]; no binding (tested: supernatant 1/100) [11]; no binding (tested: supernatant 1/100) [10]. B12: binds [13].
